According to patent US20210269542A1 (POTENZA THERAPEUTICS, published 2021):

T1: human GITR-Fc (human, UniProt Q9Y5U5 26-162)
T1 construct: also called recombinant hGITR; wild type human GITR-Fc
T1 sequence: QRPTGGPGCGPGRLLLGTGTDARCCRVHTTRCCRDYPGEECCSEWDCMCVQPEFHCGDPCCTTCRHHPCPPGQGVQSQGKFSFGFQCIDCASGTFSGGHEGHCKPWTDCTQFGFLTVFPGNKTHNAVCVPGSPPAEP

T2: cyno GITR-Fc (cynomolgus monkey)
T2 construct: also called cGITR; cynomolgus GITR
T2 chain: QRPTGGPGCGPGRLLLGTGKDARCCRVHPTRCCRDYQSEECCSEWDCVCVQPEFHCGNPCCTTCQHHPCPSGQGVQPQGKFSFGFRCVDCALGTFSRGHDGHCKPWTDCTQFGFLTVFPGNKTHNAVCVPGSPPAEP

T3: human GITR expressed on cells (human, UniProt Q9Y5U5 26-241)
T3 sequence: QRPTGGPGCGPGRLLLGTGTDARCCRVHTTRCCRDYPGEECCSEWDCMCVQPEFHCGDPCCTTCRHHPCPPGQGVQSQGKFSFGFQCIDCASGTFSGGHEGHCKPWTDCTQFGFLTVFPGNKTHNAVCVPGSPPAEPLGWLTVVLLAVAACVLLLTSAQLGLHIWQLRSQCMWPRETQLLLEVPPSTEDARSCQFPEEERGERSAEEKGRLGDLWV

T4: cynomolgus monkey GITR expressed on HT1080 cells (cynomolgus monkey)
T4 chain: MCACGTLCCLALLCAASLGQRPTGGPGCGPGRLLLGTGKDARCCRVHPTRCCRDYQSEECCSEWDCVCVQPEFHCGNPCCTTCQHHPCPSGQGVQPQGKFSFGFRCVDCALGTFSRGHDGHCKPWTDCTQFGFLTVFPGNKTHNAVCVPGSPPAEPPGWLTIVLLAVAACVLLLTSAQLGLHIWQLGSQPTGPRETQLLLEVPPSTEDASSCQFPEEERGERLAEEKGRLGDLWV


Experiments:
[1] = target: T1, human GITR-Fc; test: BLI Octet RED384, ABP on AHQ sensor, 100 nM antigen, single concentration;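 also: association and dissociation each tracked over 180 s, with dissociation run in antigen-free buffer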
Method: (§1) The sensors were quenched by dipping into an unrelated human IgG1 antibody to prevent non-specific binding of GITR-Fc antigens to the sensor. The sensors were equilibrated in assay buffer for 30 minutes. Baseline was established by dipping the sensors into assay buffer for 60 seconds. Association was monitored for 180 seconds in 100 nM of recombinant antigens, and dissociation was followed for 180 seconds in buffer alone. KD was determined using the kinetic function of the FORTEBIO® Analysis Software using a 1:1 binding model.

[2] = target: T2, cyno GITR-Fc; test: as above
Method: as §1

[3] = target: T3, human GITR expressed on cells; test: cell-based or functional assay
[4] = target: T4, cynomolgus monkey GITR expressed on …; test: cell-based or functional assay
[5] = target: T3, human GITR expressed on cells; test: cell-based or functional assay; remark: listed apart in the source
[6] = target: T4, cynomolgus monkey GITR expressed on …; test: cell-based or functional assay

Binder | Kd [1] | Kd [2] | Average EC50 in human HT1080 (IL-8 induction) [3] | Average EC50 in cynomolgus HT1080 (IL-8 induction) [4] | EC50 in human HT1080 (IL-8 induction) [5] | EC50 in cynomolgus HT1080 (IL-8 induction) [6]
ABP11 (antibody, human IgG1, kappa, N297A, V domains shown) VH: QVQLVQSGAEVKRPGSSVKVSCKASGGTFSSYYISWVRQVPGQGLEWMGGIIPVPGTANYAQKFQGRVTITADESTSTAYMELSSLRSEDTAVYYCARAGGGYARGDHYYGMDVWGQGTTVTVSS VL: not shown | 3.1 nM | 8.5 nM |  |  | 3.9 nM | 21.6 nM
ABP39 (antibody, human IgG1, kappa, N297A, V domains shown, IgG1 N297A, bivalent; also called non-TM ABP corresponding to ABP6) VH: QVQLQESGPGLVKPSETLSLTCAVSGYSISSGAGWGWIRQPPGKGLEWIGLIVHSGSTYYNPSLKSRVTISVDTSKNQFSLKLSSVTAADTAVYYCVLESVRGYGDYGGHHAFDIWGQGTMVTVSS VL: DIQMTQSPSSLSASVGDRVTITCRASQSISSYLNWYQQKPGKAPKLLIYAADSLQSGVPSRFSGSGSGTDFTLTISSLQPEDFATYYCQQEYNTPPTFGGGTKVEIKR | 0.7 nM | 8.2 nM | 0.44 nM | 2.3 nM |  | 
ABP14 (antibody, human IgG1, kappa, N297A, V domains shown) VH: QVQLVQSGAEVKKPGSSVKVSCKASGGTFSSYAISWVRQAPGQGLEWMGGIIPISGFTNYAQKFQGRVTITADESTSTAYMELSSLRSEDTAVYYCAREGGHYYSGWPYWGQGTLVTVSS VL: EIVLTQSPATLSLSPGERATLSCRASQSVSSYLAWYQQKPGQAPRLLIYDASNRATGIPARFSGSGSGTDFTLTISSLEPEDFAVYYCQQRLVFPPTFGGGTKVEIKR | 2.8 nM | 5.9 nM |  |  | 0.6 nM | 4.1 nM
ABP17 (antibody, human IgG1, kappa, N297A, V domains shown) VH: QVQLVQSGAEVKKPGSSVKVSCKASGGTFVRYAISWVRQAPGQGLEWMGGIIPIFGEAQYAQRFQGRVTITADESTSTAYMELSSLRSEDTAVYYCAREGYYYGALPYWGQGTLVTVSS VL: EIVLTQSPATLSLSPGERATLSCRASQSVSSYLAWYQQKPGQAPRLLIYDASNRATGIPARFSGSGSGTDFTLTISSLEPEDFAVYYCQQHSVFPPTFGGGTKVEIKR | 4.2 nM | 4.6 nM |  |  | 5.3 nM | 8.4 nM
ABP18 (antibody, human IgG1, kappa, N297A, V domains shown) VH: QVQLVQSGAEVKKPGSSVKVSCKASGGTFVRYAISWVRQAPGQGLEWMGGIIPIFGEAQYAQKFRGRATITADESTSTAYMELSSLRSEDTAVYYCAREGYYYGALPYWGQGTLVTVSS VL: EIVLTQSPATLSLSPGERATLSCRASQSVSSYLAWYQQKPGQAPRLLIYDASNRATGIPARFSGSGSGTDFTLTISSLEPEDFAVYYCQQHSVFPPTFGGGTKVEIKR | 4 nM | 8.4 nM |  |  | 2.1 nM | 13.2 nM
ABP13 (antibody, human IgG1, kappa, N297A, V domains shown) VH: QVQLVQSGAEVKKPGSSVKVSCKASGGTFSRGAISWVRQAPGQGLEWMGGIIPIEGTAYYAQKFQGRVTITADESTGTAYMELSSLRSEDTAVYYCARQSDYGLPRGMDVWGQGTTVTVSS VL: DIQLTQSPSSVSASVGDRVTITCRASQGISSWLAWYQQKPGKAPKLLIYGASSLQSGVPSRFSGSGSGTDFTLTISSLQPEDFATYYCQQASLFPPTFGGGTKVEIKR | 5.5 nM | 6.4 nM |  |  | 7.8 nM | 15 nM

The next lines start with the values.

Kd [1] | Kd [2] | Average EC50 in human HT1080 (IL-8 induction) [3] | Average EC50 in cynomolgus HT1080 (IL-8 induction) [4] | EC50 in human HT1080 (IL-8 induction) [5] | EC50 in cynomolgus HT1080 (IL-8 induction) [6] | Binder
1.4 nM | 7.5 nM | 0.58 nM | 8.8 nM |  |  | ABP36 (antibody, human IgG1, kappa, N297A, V domains shown, IgG1 N297A, bivalent; also called non-TM ABP corresponding to ABP2) VH: QVQLQESGPGLVKPSQTLSLTCTVSGGSISSGGAVWSWIRQHPGKGLEWIGGIAYSGSTYYNPSLKSRVTISVDTSKNQFSLKLSSVTAADTAVYYCADENVRGYGDYGGHHAFDIWGQGTMVTVSS VL: not shown
2.8 nM | 7.9 nM |  |  | 3.5 nM | 28.4 nM | ABP12 (antibody, human IgG1, kappa, N297A, V domains shown) VH: QVQLVQSGAEVKKPGSSVKVSCKASGGTFSSYYISWVRQAPGQRLEWMGGIIPVPGTANYAQKFQGRVTITADESTSTAYMELSSLRSEDTAVYYCARAGGGYARGDHYYGMDVWGQGTTVTVSS VL: not shown
0.7 nM | 8.1 nM | 0.19 nM | 1.7 nM |  |  | ABP37 (antibody, human IgG1, kappa, N297A, V domains shown, IgG1 N297A, bivalent; also called non-TM ABP corresponding to ABP3) VH: QVQLQESGPGLVKPSETLSLTCAVSGYSISSGAGWGWIRQPPGKGLEWIGLIVHSGSTYYNPSLKSRVTISVDTSKNQFSLKLSSVTAADTAVYYCVLESVRGYGDYGGHHAFDIWGQGTMVTVSS VL: DIQMTQSPSSLSASVGDRVTITCRASQSISSYLNWYQQKPGKAPKLLIYAASSLKYGVPSRFSGSGSGTDFTLTISSLQPEDFATYYCQQEYNTPPTFGGGTKVEIKR
0.6 nM | 11.1 nM | 0.33 nM | 14.3 nM |  |  | ABP38 (antibody, human IgG1, kappa, N297A, V domains shown, IgG1 N297A, bivalent; also called non-TM ABP corresponding to ABP4/5) VH: QVQLQESGPGLVKPSETLSLTCAVSGYSISSGAGWGWIRQPPGKGPEWIGLIVHSGSTYYNPSLKSRVTISVDTSKNQFSLKLSSVTAADTAVYYCVLESVRGYGDYGGHHAFDIWGQGTMVTVSS VL: DIQMTQSPSSLSASVGDRVTITCRASKSIDSYLNWYQQKPGKAPKLLIYAASSLQSGVPSRFSGSGSGTDFTLTISSLQPEDFATYYCQQEYNTPPTFGGGTKVEIKR
2.2 nM | 4.9 nM | 0.34 nM | 1.1 nM |  |  | ABP40 (antibody, human IgG1, kappa, N297A, V domains shown, IgG1 N297A, bivalent; also called non-TM ABP corresponding to ABP7) VH: QVQLQESGPGLVKPSETLSLTCAVSGYSISSEYMWGWIRQPPGKGLEWIGLIYHSGKTYYNPSLKSRVTISVDTSKNQFSLKLSSVTAADTAVYYCAREADRGYGDYGGHHAFDIWGQGTMVTVSS VL: DIQMTQSPSSLSASVGDRVTITCRASQSINSYLNWYQQKPGKAPKLLIYAASSLDSGVPSRFSGSGSGTDFTLTISSLQPEDFATYYCQQEYNTPPTFGGGTKVEIKR
1.5 nM | 5.7 nM | 0.88 nM | 2 nM |  |  | ABP35 (antibody, human IgG1, kappa, N297A, V domains shown, IgG1 N297A, standard bivalent format; also called ABP35 IgG1; non-TM ABP corresponding to ABP1) VH: QVQLQESGPGLVKPSETLSLTCAVSGYSISSGLGWGWIRQPPGKGLEWIGGIYESGSTYYNPSLKSRVTISVDTSKNQFSLKLSSVTAADTAVYYCAHERVRGYGDYGGHHAFDIWGQGTMVTVSS VL: not shown
3.3 nM | 5.2 nM |  |  | 0.6 nM | 4.5 nM | ABP15 (antibody, human IgG1, kappa, N297A, V domains shown) VH: QVQLVQSGAEVKKPGSSVKVSCKASGGTFSSYAISWVRQAPGQRLEWMGGIIPISGFTNYAQKFQGRVTITADESTSTAYMELSSLRSEDTAVYYCAREGGHYYSGWPYWGQGTLVTVSS VL: EIVLTQSPATLSLSPGERATLSCRASQSVSSYLAWYQQKPGQAPRLLIYDASNRATGIPARFSGSGSGTDFTLTISSLEPEDFAVYYCQQRLVFPPTFGGGTKVEIKR
2.9 nM | 5.4 nM |  |  | 0.6 nM | 3.8 nM | ABP16 (antibody, human IgG1, kappa, N297A, V domains shown) VH: QVQLVQSGAEVKKPGSSVKVSCKASGGTFSSYAISWVRQAPGQGLEWMGGIIPISGFTNYAQKFQGKVTITADESTSTAYMELSSLRSEDTAVYYCAREGGHYYSGWPYWGQGTLVTVSS VL: EIVLTQSPATLSLSPGERATLSCRASQSVSSYLAWYQQKPGQAPRLLIYDASNRATGIPARFSGSGSGTDFTLTISSLEPEDFAVYYCQQRLVFPPTFGGGTKVEIKR
